Measurements: paper PMC3285688, “Active Site Mutations Change the Cleavage Specificity of Neprilysin” (PLoS ONE, 2012)

What was measured:
Assay type in all cases: biochemical
[1] = system: leu-ENK and insulin B chain; test: Dual substrate assay: substrate preference leu-ENK versus insulin B chain
Protocol: (§1) The rate of cleavage of a substrate mixture is determined by both the kcat for that substrate as well by the affinity for the substrate. […] This is expected, given that each peptide acts as a competitive inhibitor of the other. […] That is the ratio for leu-ENK/insulin B chain cleavage is 3 for NEP^S546E compared to 6 for wild-type NEP.
(§2) Cleavage of physiological peptides was measured via reverse phase high performance liquid chromatography (HPLC) following incubation of the purified NEP or its mutants with 15 µM insulin B chain (Sigma Aldrich), 24 µM Aß1–40 (Anaspec), or 64 µM leu-ENK (Sigma) in 100 µL of 20 mM MES, pH 6.5, at 37°C. Reactions were run in triplicate. HPLC was carried out in a Vydac C4 column using a linear gradient from 0.1% trifluoroacetic acid (TFA) in 95% water, 5% acetonitrile to 0.1% TFA in 50% acetonitrile/water at a flow rate of 1 mL/min. Peptides and hydrolysis products were detected at 214 nm and quantified by measuring peak areas. Peptides obtained from HPLC were analyzed on an Applied Biosystems 4800 MALDI TOF/TOF Proteomics Analyzer at the University of Kentucky Proteomics core. This facility is supported in part by grant P20RR020171 from the NIH/NCRR.

[2] = Hydrolysis of synthetic substrate Glut-Ala-Ala-Phe-MNA by NEP and mutants (fluorogenic); settings: for Km: Glut-Ala-Ala-Phe-MNA 20 to 500 µM, Michaelis-Menten fit; for Activity relative to wild-type enzyme (Glut-Ala-Ala-Phe-MNA): pH 6.5, 37°C
Protocol: Reactions of 400 µl contained 100 µM Glut-Ala-Ala-Phe-MNA, 1 µg of aminopeptidase and 15 to 100 ng of NEP or mutant NEP depending on their activity in 20 mM MES buffer, pH 6.5. Activity was monitored with a Spectra Max Gemini XS plate reader using an excitation wavelength of 340 nm and an emission wavelength of 425 nm.
(§3) Kinetic constants for NEP and its mutants were obtained using the assay conditions noted above, but with Glut-Ala-Ala-Phe-MNA varied from 20 to 500 µM. Typically 12 data points were obtained. The data were fit to the Michaelis-Menten equation using Prism4 software. The Ki for insulin B chain was obtained by measuring the rate of Glut-Ala-Ala-Phe-MNA hydrolysis in the presence of varying concentrations of insulin B chain from 1 to 40 µM. Data were fit to a Dixon plot (1/rate versus [insulin B chain]) using Prism4 software and the ID50 obtained as the –x intercept, where ID50 corresponds to the concentration of insulin producing 50% inhibition. The actual Ki was obtained from the equation: ID50 = Ki (1+ [Glut-Ala-Ala-Phe-MNA]/KmGlut-Ala-Ala-Phe-MNA), [33].

Aß1–40 = test: Rate of Aß1–40 hydrolysis (HPLC); settings: 24 µM Aß1–40, 37°C, 20 mM MES buffer, pH 6.5; disappearance of substrate by HPLC; at least triplicate
Protocol: as §2
(§4) Statistical analysis comparing wild-type NEP and its mutants was performed with Prism 4 software using a two-tailed paired t-test with a 95% confidence interval.

leu-ENK [3] = test: Rate of leu-ENK hydrolysis (HPLC)
Protocol: as §2, §4

insulin B chain [4] = test: Dual substrate assay: insulin B chain hydrolysis in presence of leu-ENK; settings: 15 µM insulin B chain and 64 µM leu-ENK together, 37°C, 20 mM MES buffer, pH 6.5
Protocol: as §1, §2

insulin B chain [5] = test: Insulin B chain as alternate substrate (competitive) inhibitor of Glut-Ala-Ala-Phe-MNA hydrolysis (Dixon plot); settings: insulin B chain 1 to 40 µM as competitive inhibitor of Glut-Ala-Ala-Phe-MNA hydrolysis by the enzyme form, 37°C, 20 mM MES, pH 6.5, ID50 converted to Ki
Protocol: as §3

insulin B chain [6] = test: Rate of insulin B chain hydrolysis (HPLC); settings: 15 µM insulin B chain, 37°C, 20 mM MES buffer, pH 6.5; disappearance of substrate by HPLC; at least triplicate
Protocol: as §2, §4

leu-ENK [7] = test: Dual substrate assay: leu-ENK hydrolysis in presence of insulin B chain; settings: 15 µM insulin B chain and 64 µM leu-ENK together, 37°C, 20 mM MES buffer, pH 6.5
Protocol: as §1, §2

B1: NEP^F563V: neprilysin active site mutant, Phe563 to valine (protein, UniProt P08473 2-750, looked up, variant F563V)
Neprilysin: GKSESQMDITDINTPKPKKKQRWTPLEISLSVLVLLLTIIAVTMIALYATYDDGICKSSDCIKSAARLIQNMDATTEPCTDFFKYACGGWLKRNVIPETSSRYGNFDILRDELEVVLKDVLQEPKTEDIVAVQKAKALYRSCINESAIDSRGGEPLLKLLPDIYGWPVATENWEQKYGASWTAEKAIAQLNSKYGKKVLINLFVGTDDKNSVNHVIHIDQPRLGLPSRDYYECTGIYKEACTAYVDFMISVARLIRQEERLPIDENQLALEMNKVMELEKEIANATAKPEDRNDPMLLYNKMTLAQIQNNFSLEINGKPFSWLNFTNEIMSTVNISITNEEDVVVYAPEYLTKLKPILTKYSARDLQNLMSWRFIMDLVSSLSRTYKESRNAFRKALYGTTSETATWRRCANYVNGNMENAVGRLYVEAAFAGESKHVVEDLIAQIREVFIQTLDDLTWMDAETKKRAEEKALAIKERIGYPDDIVSNDNKLNNEYLELNYKEDEYFENIIQNLKFSQSKQLKKLREKVDKDEWISGAAVVNAFYSSGRNQIVFPAGILQPPVFSAQQSNSLNYGGIGMVIGHEITHGFDDNGRNFNKDGDLVDWWTQQSASNFKEQSQCMVYQYGNFSWDLAGGQHLNGINTLGENIADNGGLGQAYRAYQNYIKKNGEEKLLPGLDLNHKQLFFLNFAQVWCGTYRPEYAVNSIKTDVHSPGNFRIIGTLQNSAEFSEAFHCRKNSYMNPEKKCRVW
With B1 the “Substrate preference leu-ENK/insulin B chain (in words)” value ([1]; dual substrate assay, versus wild-type) was “no change in overall substrate preference”, the “Ratio leu-ENK insulin B chain” value ([1]; ratio of rates, 15 µM insulin B chain and 64 µM leu-ENK together) was 5.8 and the “Specific Activity (Glut-Ala-Ala-Phe-MNA cleavage)” value ([2]; 100 µM Glut-Ala-Ala-Phe-MNA, 37°C, 20 mM MES buffer, pH 6.5, fluorescence ex 340 nm, em 425 nm) was 11.2 ± 0.3 pmol/min/ng. For the same molecule, the Km ([2]; 37°C, 20 mM MES buffer, pH 6.5) was 51 ± 10 µM, the “Activity relative to wild-type enzyme (Glut-Ala-Ala-Phe-MNA)” value [2] was roughly 25% and the “Rate of hydrolysis of Aß1–40” value (Aß1–40) was 14 ± 1 fmol/min/ng. The “leu-ENK cleavage rate as fraction of wild-type rate” value (leu-ENK [3]; 64 µM leu-ENK) was 1/6, the “Rate of hydrolysis of leu-ENK” value (leu-ENK [3]; 64 µM leu-ENK, 37°C, 20 mM MES buffer, pH 6.5, disappearance of substrate by HPLC, at least triplicate) was 0.31 ± 0.02 pmol/min/ng and the “leu-ENK cleavage rate relative to wild-type NEP rate” value (leu-ENK [3]; 64 µM leu-ENK, pH 6.5, 37°C) was “less than 20%”. The “Increase in preference for leu-ENK (over Aß1–40)” value (leu-ENK [3]; relative to NEP, from separate single-substrate rates) was “two fold”, the “Insulin B Chain hydrolysis rate, dual substrate assay” value (insulin B chain [4]) was 0.04 ± 0.01 pmol/min/ng and the “Insulin B Chain hydrolysis, activity relative to the uninhibited value” (insulin B chain [4]; numbers in parenthesis) was 0.67. For the same molecule, the Ki (insulin B chain [5]) was 1000 ± 100 nM, the “Rate of hydrolysis of Insulin B Chain” value (insulin B chain [6]) was 0.06 ± 0.02 pmol/min/ng and the “leu-ENK hydrolysis rate, dual substrate assay” value (leu-ENK [7]) was 0.23 ± 0.03 pmol/min/ng. The “leu-ENK hydrolysis, activity relative to the uninhibited value” (leu-ENK [7]; numbers in parenthesis) was 0.74.

B2: NEP^S546A: neprilysin active site mutant, Ser546 to alanine (protein, UniProt P08473 2-750, looked up, variant S546A)
Neprilysin: GKSESQMDITDINTPKPKKKQRWTPLEISLSVLVLLLTIIAVTMIALYATYDDGICKSSDCIKSAARLIQNMDATTEPCTDFFKYACGGWLKRNVIPETSSRYGNFDILRDELEVVLKDVLQEPKTEDIVAVQKAKALYRSCINESAIDSRGGEPLLKLLPDIYGWPVATENWEQKYGASWTAEKAIAQLNSKYGKKVLINLFVGTDDKNSVNHVIHIDQPRLGLPSRDYYECTGIYKEACTAYVDFMISVARLIRQEERLPIDENQLALEMNKVMELEKEIANATAKPEDRNDPMLLYNKMTLAQIQNNFSLEINGKPFSWLNFTNEIMSTVNISITNEEDVVVYAPEYLTKLKPILTKYSARDLQNLMSWRFIMDLVSSLSRTYKESRNAFRKALYGTTSETATWRRCANYVNGNMENAVGRLYVEAAFAGESKHVVEDLIAQIREVFIQTLDDLTWMDAETKKRAEEKALAIKERIGYPDDIVSNDNKLNNEYLELNYKEDEYFENIIQNLKFSQSKQLKKLREKVDKDEWISGAAVVNAFYASGRNQIVFPAGILQPPFFSAQQSNSLNYGGIGMVIGHEITHGFDDNGRNFNKDGDLVDWWTQQSASNFKEQSQCMVYQYGNFSWDLAGGQHLNGINTLGENIADNGGLGQAYRAYQNYIKKNGEEKLLPGLDLNHKQLFFLNFAQVWCGTYRPEYAVNSIKTDVHSPGNFRIIGTLQNSAEFSEAFHCRKNSYMNPEKKCRVW
In the case of B2, the Km ([2]; 37°C, 20 mM MES buffer, pH 6.5) is reported as 118 ± 7 µM.

B3: NEP^F563K: neprilysin active site mutant, Phe563 to lysine (low expressing) (protein, UniProt P08473 2-750, looked up, variant F563K)
Neprilysin: GKSESQMDITDINTPKPKKKQRWTPLEISLSVLVLLLTIIAVTMIALYATYDDGICKSSDCIKSAARLIQNMDATTEPCTDFFKYACGGWLKRNVIPETSSRYGNFDILRDELEVVLKDVLQEPKTEDIVAVQKAKALYRSCINESAIDSRGGEPLLKLLPDIYGWPVATENWEQKYGASWTAEKAIAQLNSKYGKKVLINLFVGTDDKNSVNHVIHIDQPRLGLPSRDYYECTGIYKEACTAYVDFMISVARLIRQEERLPIDENQLALEMNKVMELEKEIANATAKPEDRNDPMLLYNKMTLAQIQNNFSLEINGKPFSWLNFTNEIMSTVNISITNEEDVVVYAPEYLTKLKPILTKYSARDLQNLMSWRFIMDLVSSLSRTYKESRNAFRKALYGTTSETATWRRCANYVNGNMENAVGRLYVEAAFAGESKHVVEDLIAQIREVFIQTLDDLTWMDAETKKRAEEKALAIKERIGYPDDIVSNDNKLNNEYLELNYKEDEYFENIIQNLKFSQSKQLKKLREKVDKDEWISGAAVVNAFYSSGRNQIVFPAGILQPPKFSAQQSNSLNYGGIGMVIGHEITHGFDDNGRNFNKDGDLVDWWTQQSASNFKEQSQCMVYQYGNFSWDLAGGQHLNGINTLGENIADNGGLGQAYRAYQNYIKKNGEEKLLPGLDLNHKQLFFLNFAQVWCGTYRPEYAVNSIKTDVHSPGNFRIIGTLQNSAEFSEAFHCRKNSYMNPEKKCRVW
In the case of B3, the “Activity relative to wild-type enzyme (Glut-Ala-Ala-Phe-MNA)” value [2] is reported as less than 1%.

B4: NEP^S546T: neprilysin active site mutant, Ser546 to threonine (protein, UniProt P08473 2-750, looked up, variant S546T)
Neprilysin: GKSESQMDITDINTPKPKKKQRWTPLEISLSVLVLLLTIIAVTMIALYATYDDGICKSSDCIKSAARLIQNMDATTEPCTDFFKYACGGWLKRNVIPETSSRYGNFDILRDELEVVLKDVLQEPKTEDIVAVQKAKALYRSCINESAIDSRGGEPLLKLLPDIYGWPVATENWEQKYGASWTAEKAIAQLNSKYGKKVLINLFVGTDDKNSVNHVIHIDQPRLGLPSRDYYECTGIYKEACTAYVDFMISVARLIRQEERLPIDENQLALEMNKVMELEKEIANATAKPEDRNDPMLLYNKMTLAQIQNNFSLEINGKPFSWLNFTNEIMSTVNISITNEEDVVVYAPEYLTKLKPILTKYSARDLQNLMSWRFIMDLVSSLSRTYKESRNAFRKALYGTTSETATWRRCANYVNGNMENAVGRLYVEAAFAGESKHVVEDLIAQIREVFIQTLDDLTWMDAETKKRAEEKALAIKERIGYPDDIVSNDNKLNNEYLELNYKEDEYFENIIQNLKFSQSKQLKKLREKVDKDEWISGAAVVNAFYTSGRNQIVFPAGILQPPFFSAQQSNSLNYGGIGMVIGHEITHGFDDNGRNFNKDGDLVDWWTQQSASNFKEQSQCMVYQYGNFSWDLAGGQHLNGINTLGENIADNGGLGQAYRAYQNYIKKNGEEKLLPGLDLNHKQLFFLNFAQVWCGTYRPEYAVNSIKTDVHSPGNFRIIGTLQNSAEFSEAFHCRKNSYMNPEKKCRVW
Molecule B4 has a Km ([2]; 37°C, 20 mM MES buffer, pH 6.5) of 73 ± 6 µM.
